Experimental data taken from US20240209089A1.
Substitutions are numbered along the chain they refer to.

B1: phage clone No. 27 (C27) (VHH)
VHH: QLQLVESGGGLVQPGGSLRLSCVVSGSIFAINTMGWYRQAPGKQRELVATMHSGGSTNYADSVKGRFTISRDAAPKTVYLQMNSLKPADTAVYYCHADDSGWGTVDSWGQGIQVTVSS
B2: phage clone No. 46 (C46) (VHH)
VHH: QVQLVESGGGLVQAGGSLRLSCAASGVTFDDLAIGWFRQVPGKGREGVSTIGTSDGTAYYADSVKGRFTISSDNAKNTVYLQMNSLKPEDTAVYYCAVDLDYGLGSLLPMGYDYWGQGTQVTVSS
B3: phage clone No. 29 (C29) (VHH)
VHH: QVQLVESGGGLVQAGGSLRLSCVASGFTSDDYVIGWFRQAPGKEREGVSCISSSDGTTNYADSVKGRFTISSDNAKNTVYLQMNSLKPEDTAVYYCAADPMRVCPYSGTYYGILGFGTSGQGTQVTVSS
B4: phage clone No. 77 (S29) (VHH)
VHH: QLQLVESGGGLVQPGGSLRLSCTASGIIFSINTMGWYRQAPGKQRELVADISSFGSTNYADSVKGRFTISRDNAKNSVYLQMNSLKPEDTAVYYCNAHDKGWGTVDSWGQGTQVTVSS
B5: phage clone No. 54 (S6) (VHH)
VHH: QVQLVESGGGLVQPGGSLRLSCAVSGTIFSINTMGWYRQVPGKQRELVATITSSGSTKYADSVKGRFTVSRDNAKRTVFLQMDSLKPEDTAVYYCHANDVGWGTVNAWGQGTLVTVSS
B6: phage clone No. 66 (S18) (VHH)
VHH: QLQLVESGGGLVQPGGSLRLSCAASGSIFSINTMGWYRQAPGKQRELVATMTSHGSTNYADSVKGRFTISRDNSKNTVYLQMNSLKLQDTAVYYCNANDMGWGTVDAWGQGTLVTVSS
B7: phage clone No. 55 (S7) (VHH)
VHH: QLQLVESGGGLVQPGGSLRLSCAASGSIFSINGMGWYRQAPGKQREAVAVITSGGKIDYLDSVKGRFTISRDSAKNTVALQMNSLKPEDTAVYYCNAYGDVRRGEVRWGQGTQVTVSS
B8: phage clone No. 71 (S23) (VHH)
VHH: B7 VHH with L2V, A47L, V50A, I57T, R102Q
B9: phage clone No. 20 (C20) (VHH)
VHH: QVQLVESGGGLVQPGGSLRLSCAASGSIFSINTMGWYRQAPGKQRELVATMHSTGSTNYADSVKGRFTISRDNAKKTVYLQMNSLEPDDTAVYYCHVDDTGWGTVDSWGQGTQVTVS
B10: phage clone No. 53 (S5) (VHH)
VHH: QVQLVESGGGLVQAGGSLRVSCAASGGTFSSTAMGWFRQAPGKEREFVAAISWSGGYTYYADSVRGRFTISRDNALNTVSLQMNSLKPEDTAVYYCAADISGLDTVAAGIFTEPNIDYWGKGTLVTVSS
B11: phage clone No. 24 (C24) (VHH)
VHH: QVQLVESGGGLVQPGGSLRLSCAASGPIFSINTMGWYRQAPGKQRELVATMHSTGSTNYADSVKGRFTISRDNAKKTVYLQMNSLKPDDTAVYYCHVDDTGWGTVDSWGQGIQVTVSS
B12: phage clone No. 70 (S22) (VHH)
VHH: B11 VHH with V2L, P27S, T100M, I112T
B13: phage clone No. 45 (C45) (VHH)
VHH: B11 VHH with A40V, I112T
B14: phage clone No. 61 (S13) (VHH)
VHH: B1 VHH with G54Y, A73N, P75K, S100T, I112T
B15: phage clone No. 30 (C30) (VHH)
VHH: B11 VHH with A23V, P27S, S30A, T50D, T77K, T100R, I112T
B16: phage clone No. 37 (C37) (VHH)
VHH: QLQLVESGGGLVQAGGSLRLSCAASGLTFEDYAIGWFRQAPGKEREGISCIRIYDGNTYSAESVKGRFTISSDNAKNQVYLQINTLKPEDTAVYYCAAGSYYSCSVYPDYDMDYWGKGTLVTVSS
B17: phage clone No. 2 (C2) (VHH)
VHH: B16 VHH with L2V, A14P, L27F, F29L, E30D, D31Y
B18: phage clone No. 42 (C42) (VHH)
VHH: B16 VHH with L2V

These binders were tested against Fc protein (assay: phage ELISA on coated Fc protein).

Binder | OD450
B1 | 0.084
B2 | 0.081
B3 | 0.115
B4 | 0.08
B5 | 0.058
B6 | 0.081
B7 | 0.059
B8 | 0.093
B9 | 0.133
B10 | 0.068
B11 | 0.083
B12 | 0.059
B13 | 0.115
B14 | 0.094
B15 | 0.103
B16 | 0.11
B17 | 0.149
B18 | 0.111
